From PMC9006252

Target: Plasmodium falciparum plasmoredoxin (Plasmodium falciparum)
Test: SEC; PfPlrx without TCEP, at least partially oxidized

stoichiometry N: 2
Substance: Plasmodium falciparum plasmoredoxin (natural protein)
